Results as given in patent US8987192B2, “Potent and selective mediators of cholesterol efflux” (The Regents of the University of California, priority 2006, dated 2015).
Where no end group is shown, it is not given here. [ ]: non-standard residue; d: D form.

Biological target: ABCA1 (Mus musculus, UniProt P41233)
Assay: Cholesterol efflux from [3H]cholesterol-labeled ABCA1-expressing J774 mouse macrophages
Type: cell-based
Parameters: to upregulate cellular ABCA1 protein; endogenous in cells; host or cells: J774 mouse macrophages
Conditions: for ABCA1-dependent cholesterol efflux: macrophages with vs without cAMP; for efficiency of ABCA1 cholesterol efflux (concentration dependence): concentration dependence curves; for capacity to stimulate cholesterol efflux at 3 μg/ml: 3 μg/ml lipid-free peptide, ABCA1-expressing macrophages; for ABCA1-dependent cholesterol efflux at 30 μg/ml: 30 μg/ml peptide; for cholesterol efflux from macrophages not induced for ABCA1 (non-specific): no cAMP
Method: In some embodiments, a polypeptide known to mediate cholesterol efflux (e.g., helix 9/10 of Apo A-I) is used to screen for additional mediators of cholesterol efflux in a cell based assay. For example, cell lines in which cholesterol efflux can be enhanced using a cAMP analog that up-regulates ABCA1 protein expression (e.g., J774 macrophages) can conveniently be used to assess the ability of a polypeptide of the present invention to mediate cholesterol efflux. The cells are incubated with labeled cholesterol (e.g., [^3H]cholesterol) under conditions appropriate for cholesterol uptake by the cells. Thus, cAMP or cAMP analogs (e.g., CPT-cAMP) are incubated with the cells for a suitable time before the initiation of cellular cholesterol efflux, i.e., prior to contacting the cells with a test polypeptide. Measurement of labeled cholesterol appearing in the medium is used to determine the cholesterol efflux mediating activity of the test polypeptide.
J774 mouse macrophages labeled with [^3H]cholesterol were treated (20 h) with 22-hydroxycholesterol (10 μM)/cis-retinoic acid (10 μM) to upregulate cellular ABCA1 protein.
Mouse macrophages were labeled with [^3H]cholesterol and treated with a cAMP analog to induce ABCA1 expression. […] Km values were calculated using the Michaelis-Menton equation and GraphPad Prism4 software.
Inverted sequence peptides synthesized with all L-amino acids and all D-amino acids were tested for cholesterol efflux activity using ABCA1 expressing J774 macrophages.
Two peptide analogs were engineered; the first replacing glutamic acid residues (E) at position 8 and 15 with aspartic acid residues (D), i.e., E8, 15>D polypeptides, and the second, replacing E1, 7, 8, 15, 18, 19 with D, i.e., all D (Asp) polypeptide. Cholesterol efflux activity was determined using J774 macrophages treated with and without a cAMP analog to modulate ABCA1 expression.
The impact of the A12>L substitution was also tested for activity, which also expanded non-polar surface area.
1-palmitoyl-2-oleoyl-phosphatidylcholine (POPC) was used to evaluate the cholesterol efflux properties of a formulated polypeptide of the present invention. […] To test cholesterol efflux activity, J774 mouse macrophages were labeled with [^3H]cholesterol and treated with and without cAMP to modulate ABCA1 expression.

Sequence of ABCA1 (P41233 whole entry): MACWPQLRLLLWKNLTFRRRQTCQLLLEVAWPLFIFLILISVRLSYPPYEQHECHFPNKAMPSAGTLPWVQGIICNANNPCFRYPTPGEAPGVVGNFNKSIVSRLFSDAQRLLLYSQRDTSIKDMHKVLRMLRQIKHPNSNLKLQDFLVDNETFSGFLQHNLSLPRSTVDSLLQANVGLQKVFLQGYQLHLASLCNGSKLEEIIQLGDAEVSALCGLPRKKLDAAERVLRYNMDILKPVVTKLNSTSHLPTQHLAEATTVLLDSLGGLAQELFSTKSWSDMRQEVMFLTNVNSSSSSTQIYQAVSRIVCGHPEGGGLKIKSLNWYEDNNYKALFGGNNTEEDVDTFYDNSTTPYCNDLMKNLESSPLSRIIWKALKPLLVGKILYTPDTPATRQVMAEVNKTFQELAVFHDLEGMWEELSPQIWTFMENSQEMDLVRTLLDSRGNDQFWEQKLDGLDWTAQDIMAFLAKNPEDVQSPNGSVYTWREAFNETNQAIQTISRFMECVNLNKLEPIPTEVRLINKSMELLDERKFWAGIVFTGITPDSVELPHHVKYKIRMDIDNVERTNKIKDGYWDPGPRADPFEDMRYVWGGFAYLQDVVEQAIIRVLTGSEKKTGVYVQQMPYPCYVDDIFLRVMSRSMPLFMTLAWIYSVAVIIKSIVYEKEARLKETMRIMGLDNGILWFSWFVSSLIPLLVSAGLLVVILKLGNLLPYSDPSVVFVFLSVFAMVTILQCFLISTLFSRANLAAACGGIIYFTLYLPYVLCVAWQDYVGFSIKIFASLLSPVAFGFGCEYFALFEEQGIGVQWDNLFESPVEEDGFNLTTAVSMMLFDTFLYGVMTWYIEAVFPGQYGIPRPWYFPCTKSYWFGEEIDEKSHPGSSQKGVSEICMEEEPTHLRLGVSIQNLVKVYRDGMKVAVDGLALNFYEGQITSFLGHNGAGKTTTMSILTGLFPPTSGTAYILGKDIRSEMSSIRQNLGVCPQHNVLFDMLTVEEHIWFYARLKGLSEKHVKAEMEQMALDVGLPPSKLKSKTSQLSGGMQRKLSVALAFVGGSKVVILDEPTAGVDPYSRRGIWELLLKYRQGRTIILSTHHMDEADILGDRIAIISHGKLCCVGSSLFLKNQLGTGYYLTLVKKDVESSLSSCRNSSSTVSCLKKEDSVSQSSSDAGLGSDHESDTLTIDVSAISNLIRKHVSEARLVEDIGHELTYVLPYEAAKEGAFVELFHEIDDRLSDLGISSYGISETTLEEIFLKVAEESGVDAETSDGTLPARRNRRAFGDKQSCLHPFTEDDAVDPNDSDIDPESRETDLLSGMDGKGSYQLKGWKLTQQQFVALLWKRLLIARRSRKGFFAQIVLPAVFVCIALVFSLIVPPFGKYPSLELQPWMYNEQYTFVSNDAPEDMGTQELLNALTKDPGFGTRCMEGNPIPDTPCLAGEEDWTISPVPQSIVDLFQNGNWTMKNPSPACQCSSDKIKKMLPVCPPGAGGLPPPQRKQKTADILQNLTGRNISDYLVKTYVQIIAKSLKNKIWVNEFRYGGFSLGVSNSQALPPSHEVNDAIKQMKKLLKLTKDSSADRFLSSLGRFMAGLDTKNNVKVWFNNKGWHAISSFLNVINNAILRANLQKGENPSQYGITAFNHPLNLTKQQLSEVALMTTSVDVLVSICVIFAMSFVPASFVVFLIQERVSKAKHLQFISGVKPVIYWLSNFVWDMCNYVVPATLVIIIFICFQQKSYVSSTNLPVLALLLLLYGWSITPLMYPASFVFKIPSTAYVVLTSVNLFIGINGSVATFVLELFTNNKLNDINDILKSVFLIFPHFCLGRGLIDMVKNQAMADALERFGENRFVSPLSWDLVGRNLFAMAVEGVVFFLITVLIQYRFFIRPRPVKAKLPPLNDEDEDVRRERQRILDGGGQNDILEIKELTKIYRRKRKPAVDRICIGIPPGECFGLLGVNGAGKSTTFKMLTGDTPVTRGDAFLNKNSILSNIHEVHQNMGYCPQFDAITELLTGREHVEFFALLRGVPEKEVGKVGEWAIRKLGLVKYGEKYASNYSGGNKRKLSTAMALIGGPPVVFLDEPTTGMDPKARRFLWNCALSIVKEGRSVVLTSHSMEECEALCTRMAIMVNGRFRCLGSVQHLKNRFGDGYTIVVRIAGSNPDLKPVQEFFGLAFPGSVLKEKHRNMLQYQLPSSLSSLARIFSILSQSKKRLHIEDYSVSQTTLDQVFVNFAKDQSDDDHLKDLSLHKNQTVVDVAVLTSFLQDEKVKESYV

EVRSKLEEWFAAFREFAEEFLARLKS ([dE][dV][dR][dS][dK][dL][dE][dE][dW][dF][dA][dA][dF][dR][dE][dF][dA][dE][dE][dF][dL][dA][dR][dL][dK][dS])
ABCA1-dependent cholesterol efflux: promoted ABCA1 cholesterol efflux | ABCA1-dependent cholesterol efflux (listed as D-amino acid analog of SEQ ID NO:4): stimulate ABCA1 cholesterol efflux in a ABCA1-dependent manner

SKLRALFEEAFERFAAFWEELKSRVE ([dS][dK][dL][dR][dA][dL][dF][dE][dE][dA][dF][dE][dR][dF][dA][dA][dF][dW][dE][dE][dL][dK][dS][dR][dV][dE])
ABCA1-dependent cholesterol efflux: stimulate ABCA1 cholesterol efflux in a ABCA1-dependent manner

R3, 14, 23→Q3, 14, 23: SEQ ID NO:5 with arginines 3, 14, 23 changed to glutamine (EVQSKLEEWFAAFQEFFEEFLAQLKS; S1 amphipathic alpha-helix polypeptide core sequence selectively binds HDL, high-affinity ligand for ATP- binding cassette transporter A1 (ABCA1), ABCA1-lipid cholesterol efflux, ABCA1-stablization, anti-oxidant and anti-inflammatory activity)
efficiency of ABCA1 cholesterol efflux (concentration dependence): reduced efflux efficiency | ABCA1-dependent cholesterol efflux: greatly reduced efflux capacity

23-mer: SEQ ID NO:5 with three residues deleted from the C-terminal end (EVRSKLEEWFAAFREFFEEFLAR; S1 amphipathic alpha-helix polypeptide core sequence selectively binds HDL, high-affinity ligand for ATP- binding cassette transporter A1 (ABCA1), ABCA1-lipid cholesterol efflux, ABCA1-stablization, anti-oxidant and anti-inflammatory activity)
capacity to stimulate cholesterol efflux at 3 μg/ml: weakly active

R3→Q: SEQ ID NO:5 with arginine 3 replaced by glutamine (EVQSKLEEWFAAFREFFEEFLARLKS; S1 amphipathic alpha-helix polypeptide core sequence selectively binds HDL, high-affinity ligand for ATP- binding cassette transporter A1 (ABCA1), ABCA1-lipid cholesterol efflux, ABCA1-stablization, anti-oxidant and anti-inflammatory activity)
ABCA1-dependent cholesterol efflux at 30 μg/ml: mediated cholesterol efflux in an ABCA1 dependent manner | efficiency of ABCA1 cholesterol efflux (concentration dependence): high efficiency

R14→Q: SEQ ID NO:5 with arginine 14 replaced by glutamine (EVRSKLEEWFAAFQEFFEEFLARLKS; S1 amphipathic alpha-helix polypeptide core sequence selectively binds HDL, high-affinity ligand for ATP- binding cassette transporter A1 (ABCA1), ABCA1-lipid cholesterol efflux, ABCA1-stablization, anti-oxidant and anti-inflammatory activity)
ABCA1-dependent cholesterol efflux at 30 μg/ml: mediated cholesterol efflux in an ABCA1 dependent manner | efficiency of ABCA1 cholesterol efflux (concentration dependence): high efficiency

A12>L: A12>L substitution analogs of SEQ ID NO:4 (EVRSKLEEWFALFREFAEEFLARLKS; ATI-5261 amphipathic alpha-helix polypeptide core sequence selectively binds HDL, high-affinity ligand for ATP-binding cassette transporter A1 (ABCA1), ABCA1-lipid cholesterol efflux, ABCA1-stablization, anti-oxidant and anti- inflammatory activity)
ABCA1-dependent cholesterol efflux: stimulated cholesterol efflux from macrophages in an ABCA1-dependent manner

R3, 14, 23→K3, 14, 23: SEQ ID NO:5 with lysine in place of arginine at positions 3, 14 and 23 (EVKSKLEEWFAAFKEFFEEFLAKLKS; S1 amphipathic alpha-helix polypeptide core sequence selectively binds HDL, high-affinity ligand for ATP- binding cassette transporter A1 (ABCA1), ABCA1-lipid cholesterol efflux, ABCA1-stablization, anti-oxidant and anti-inflammatory activity)
ABCA1-dependent cholesterol efflux: stimulated ABCA1 cholesterol efflux | cholesterol efflux from macrophages not induced for ABCA1 (non-specific): Low efflux

SKLRALFEEAFERFAAFWEELKSRVE (inverted peptide, ATI-5261 in reverse order)
ABCA1-dependent cholesterol efflux at 30 μg/ml: stimulated cholesterol efflux in an ABCA1-dependent manner

R3>F: SEQ ID NO:4 polypeptides with arginine at position 3 replaced by phenylalanine (EVFSKLEEWFAAFREFAEEFLARLKS; ATI-5261 amphipathic alpha-helix polypeptide core sequence selectively binds HDL, high-affinity ligand for ATP-binding cassette transporter A1 (ABCA1), ABCA1-lipid cholesterol efflux, ABCA1-stablization, anti-oxidant and anti- inflammatory activity)
ABCA1-dependent cholesterol efflux: relatively high-levels of cholesterol efflux | cholesterol efflux from macrophages not induced for ABCA1 (non-specific): low-levels of cholesterol efflux

S4, 26>A: SEQ ID NO:4 with serine to alanine substitutions at positions 4 and 26 (EVRAKLEEWFAAFREFAEEFLARLKA; ATI-5261 amphipathic alpha-helix polypeptide core sequence selectively binds HDL, high-affinity ligand for ATP-binding cassette transporter A1 (ABCA1), ABCA1-lipid cholesterol efflux, ABCA1-stablization, anti-oxidant and anti- inflammatory activity)
ABCA1-dependent cholesterol efflux: retained ABCA1-dependent cholesterol efflux activity

E8, 15→Q8, 15: SEQ ID NO:5 with two glutamate residues replaced with glutamine (EVRSKLEQWFAAFRQFFEEFLARLKS; S1 amphipathic alpha-helix polypeptide core sequence selectively binds HDL, high-affinity ligand for ATP- binding cassette transporter A1 (ABCA1), ABCA1-lipid cholesterol efflux, ABCA1-stablization, anti-oxidant and anti-inflammatory activity)
cholesterol efflux from macrophages not induced for ABCA1 (non-specific): further augmented

E8, 15>D: SEQ ID NO:5 with glutamic acid at positions 8 and 15 replaced with aspartic acid (EVRSKLEDWFAAFRDFFEEFLARLKS; S1 amphipathic alpha-helix polypeptide core sequence selectively binds HDL, high-affinity ligand for ATP- binding cassette transporter A1 (ABCA1), ABCA1-lipid cholesterol efflux, ABCA1-stablization, anti-oxidant and anti-inflammatory activity)
ABCA1-dependent cholesterol efflux: retained high capacity to stimulate cholesterol efflux in an ABCA1-dependent manner

R3>L: SEQ ID NO:4 polypeptides with arginine at position 3 replaced by leucine (EVLSKLEEWFAAFREFAEEFLARLKS; ATI-5261 amphipathic alpha-helix polypeptide core sequence selectively binds HDL, high-affinity ligand for ATP-binding cassette transporter A1 (ABCA1), ABCA1-lipid cholesterol efflux, ABCA1-stablization, anti-oxidant and anti- inflammatory activity)
ABCA1-dependent cholesterol efflux: relatively high-levels of cholesterol efflux | cholesterol efflux from macrophages not induced for ABCA1 (non-specific): low-levels of cholesterol efflux

18-mer: SEQ ID NO:5 truncated from the C-terminal end to 18 residues (EVRSKLEEWFAAFREFFE; S1 amphipathic alpha-helix polypeptide core sequence selectively binds HDL, high-affinity ligand for ATP- binding cassette transporter A1 (ABCA1), ABCA1-lipid cholesterol efflux, ABCA1-stablization, anti-oxidant and anti-inflammatory activity)
capacity to stimulate cholesterol efflux at 3 μg/ml: weakly active
